B1: 1251_P02_C05 scFv (scFv)
scFv: EVQLLESGGGLVQPGGSLRLSCAASGFTFSSYAMSWVRQAPGKGLEWVSAISGGGGTTYSSDSVKGRFTISRDNSKNTLYLQMNSLRAEDTAVYYCARDSGVAFDIWGQGTLVTVSSGGGGSGGGGSGGGASDIQMTQSPSFLSASVGDRVTITCRASQNIRTWLAWYQQKPGRAPKLLIYDASSLESGVPSRFSGSGSGTDFTLTISSLQPEDFATYYCQQFKRYPPTFGLGTKVEIK
B2: 1141_P01_E01 scFv (scFv)
scFv: QVQLVQSGAEVKKPGESLKISCKGSGYSFTSYWIGWVRQMPGKGLEWMGIIYPGDSDTRYSPSFQGQVTISADKSISTAYLQWSSLKASDTAMYYCARHQVDTRTADYWGQGTLVTVSSGGGGSGGGGSGGGASQSALTQPASVSGSPGQSVTISCTGTRSDVGGYNYVSWYQHHPGKAPKLMIYEVSNRPSGVSNRFSGSKSGNTASLTISGLQAEDEADYYCSSYTSTSTLVFGGGTKLTVL
B3: 1252_P01_C08 scFv (scFv)
scFv: EVQLLESGGGLVQPGRSLRLSCAASGFTVSSNYMSWVRQAPGKGLEWVSVIYSGGSTYYADSVKGRFTISRDNSKNTLYLQMNSLRAEDTAVYYCASPIELGAFDIWGQGTLVTVSSGGGGSGGGGSGGGASSYELTQPPSVSVAPGKTARITCGGNNIGSQSVHWYQQKPGQAPMLVIYYDSDRPSGIPERFSGSNSGNTATLTISRVEAGDEADYYCQVWDSSSDHVVFGGGTKLTVL
B4: 1245_P01_G09 scFv (scFv)
scFv: QVQLQQSGPGLVKPSQTLSLTCAISGDSVSSNSAAWNWIRQSPSRGLEWLGRTYYGSKWYNEYALSVKSRIIINPDTSKNQFSLQLNSVTPEDTAVYYCARDYYYSMDVWGQGTLVTVSSGGGGSGGGGSGGGASDIVMTQSPSTLSASIGDRVTITCRAGQSISTWLAWYQQKPGKAPKLLIYDASSLESGVPLRFSGSGSGTEFTLAISSLQPDDFATYYCQQSYSTPVTFGQGTKVEIK
B5: 1245_P01_E07 scFv (scFv)
scFv: QVQLVESGGGLVKPGGSLRLSCAASGFTFSDYYMSWIRQAPGKGLEWVSYISSSGSTIYYADSVKGRFTISRDNAKNSLYLQMNSLRAEDTAVYYCARVDYADAFDIWGQGTLVTVSSGGGGSGGGGSGGGASDIQMTQSPSSLSASVGDRVTIACRAGQSIGTYLNWYQQKPGKAPKLLIYVASSLQSGVPSRFSGSGSGTEFTLTISSLQPEDFATYYCQQSYSTLLTFGRGTKVEIK
B6: 1251_P02_G10 scFv (scFv)
scFv: EVQLVESGGGLVQPGGSLRLSCAASGFTFSDYYMSWIRQAPGKGLEWVSYISSSGSTIYYADSVKGRFTISRDNAKNSLYLQMNSLRAEDTAVYYCARHSWNDAFDIWGRGTLVTVSSGGGGSGGGGSGGGASDIQMTQSPSSLSASVGDRVTITCRASQSISSHLNWYQQKPGKAPKLLIYAASSLQSGVPSRFSASGSGTDFTLTISSLQPEDFATYYCQQSYSTLLTFGGGTKVEIK
B7: 1245_P02_F07 scFv (scFv)
scFv: QVQLQQSGPGLVKPSQTLSLTCVISGDSVSSNSAAWNWIRQSPSRGLEWLGRTYYRSKWYNDYAVSVKSRITINPDTSKNQFSLQLNSVTPEDTAVYYCARDYYYSMDVWGQGTMVTVSSGGGGSGGGGSGGGASDIQMTQSPSTLSASVGDRVTITCRASQSISSWLAWYQQKPGKAPKLLIYDASSLESGVPLRFSGSGSGTEFTLTISSLQPDDFATYYCQQSHSHPPTFGPGTKVDIK
B8: 1139_P01_E04 scFv (scFv)
scFv: QVQLQQSGPGLVKPSQTLSLTCAISGDSVSSNSAAWNWIRQSPSRGLEWLGRTYYRSKWYNDYAVSVRSRITINPDTSKNQFSLQLNSVTPEDTAVYYCARSWNDAFDIWGQGTTVTVSSGGGGSGGGGSGGGASDIVMTQSPSTLSASIGDRVTITCRAGQSISTWLAWYQQKPGKAPKLLIYDASSLESGVPLRFSGSGSGTDFTLTISSLQPEDFATYYCQQSYSTPLTFGGGTKVEIK
B9: 1245_P02_G04 scFv (scFv)
scFv: QVQLQQSGPGLVKPSQTLSLTCAISGDSVSSKSAAWNWIRQSPSRGLEWLGRTYYRSKWSTDYAASVKSRITINPDTSKNQLSLQLNSVTPEDTAVYYCARTWSGYVDVWGQGTLVTVSSGGGGSGGGGSGGGASDIQMTQSPPALSASVGDRVTITCRASQDINDWLAWYQHKPGKAPKLLIYDASSLESGVPSRFSGSGSGTEFTLTISSLQPDDFATYYCQQSYSTPQVTFGQGTRLEIK

Chain of L1 (DV1-GV4) (human) (chain, as listed by the source, chain 1 of 2): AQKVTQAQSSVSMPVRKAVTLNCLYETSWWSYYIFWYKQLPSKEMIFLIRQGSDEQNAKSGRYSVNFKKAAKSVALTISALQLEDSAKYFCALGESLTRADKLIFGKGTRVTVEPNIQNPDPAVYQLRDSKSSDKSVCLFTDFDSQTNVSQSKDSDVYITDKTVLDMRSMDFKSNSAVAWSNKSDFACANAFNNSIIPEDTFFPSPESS
Chain of L1 (DV1-GV4) (human) (chain, as listed by the source, chain 2 of 2): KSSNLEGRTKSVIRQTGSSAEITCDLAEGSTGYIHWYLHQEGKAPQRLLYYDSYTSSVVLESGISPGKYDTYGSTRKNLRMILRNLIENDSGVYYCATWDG

The assay addresses L1 (DV1-GV4) (human). Put plainly: DELFIA affinity ranking, signal with 100 nM biotinylated L1.
As to B1, the 100 nM L1 was determined as 65300.

Regarding B2, the 100 nM L1 came to 137000.

In the case of B3, the 100 nM L1 turned out to be 1980.

The molecule B4 had a 100 nM L1 of 18400.

For B5, the 100 nM L1 was determined as 163000.

B6 returned a 100 nM L1 of 17100.

Regarding B7, the 100 nM L1 was 10400.

In turn, B8 came in with a 100 nM L1 of 23800.

In turn, B9 gave a 100 nM L1 of 5900.

(Values after EP4218932A2.)
